Assay results from patent US10323078B2, “Isolated peptides and fragments thereof from fibrinogen for use as drugs, particularly in skin inflammatory diseases” (Universite Paris Descartes, priority 2015, dated 2019).

Legend:
Format in all cases: cell-based, human
[1] = test system: HaCaT, NHDK, ThP1, MRC5 and HDF cell lines; assay: Cell viability (MTT) after treatment with Fg1 and Fg2 recombinant peptides; details: all 5 cell lines; 0.22 to 7 mM for 18 h at 37° C.
Description: FIG. 10: Evaluation of cell viability after treatment with the Fg1 and Fg2 recombinant peptides. Human immortalized and primary keratinocyte cell lines HaCaT and NHDK; immortalized monocytes cell line ThP1, and immortalized and primary fibroblast cell lines MRCS and HDF were incubated with Fg1 and Fg2 recombinant peptides with concentrations ranging from 0.22 to 7 mM for 18 h at 37° C. Cell viability was assessed using the MTT assay as described in Materials and Methods.
Crystal violet staining was used to determine the number of adherent cells in 96-well plates. Briefly, after incubation with the test compound, the culture medium was discarded and the cells were incubated with a 0.05% crystal violet solution (Sigma) for 30 min at room temperature. After washing with PBS, 100% methanol was added, and the absorbance was measured spectrophotometrically at 540 nm on an ELISA multiwell reader. The MTT ([…]) assay was performed to test cell viability in 96-well plates. […] After thorough mixing, the absorbance was measured at 540 nm.
Whole P. acnes bacteria are labelled by biotinylation, pre-treated or not with the peptides and contacted with the various cell lines. After removal of the unfixed bacteria, the adhesion activity was measured spectrophotometrically by using the streptavidin-peroxidase conjugate and a chromogenic substrate.

[2] = test system: ThP1 cells; assay: O2°− production by P. acnes-stimulated ThP1; details: 0.87 to 7 μM
Description: (§1) For experiences of stimulation with P. acnes, cells were incubated with the P. acnes suspension adjusted at the appropriate concentration, pre-treated for 1 h at 37° C. or not with fibrinogen recombinant peptides Fg1 and Fg2 at the concentrations 0.87, 1.75, 3.5 or 7 μM for the desired period of time at 37° C. in 5% CO2.
(§2) All cells lines (5·10^4 to 10^5 cells/well) were seeded in 96-well plates (Corning Costar, Brumath, France) and treated as previously described. After stimulation, cells were washed three times in PBS and incubated with 100 μl per wells of 5 μM DHE (for determination of O2^●−) or 5 μM H2-DCFDA (for determination of H2O2) for 30 min as described previously and fluorescence intensity was recorded every hour over a period of 5 h. Fluorescence excitation/emission maxima were for DHE: 480/610 nm and for H2-DCFDA: 507/525 nm. At the end of the experiment, the number of adherent cells was evaluated by the crystal violet assay as described below. O2^●−, and H2O2 were assayed by spectrofluorimetry on a Fusion spectrofluorimeter (PackardBell, Paris, France). Levels of ROS were calculated in each sample as follows: reactive oxygen species rate (arbitrary units/min/10^6 cells)=(fluorescence intensity [arbitrary units] at T5h—fluorescence intensity [arbitrary units] at To/300 minutes/number of adherent cells as measured by the crystal violet assay, and were expressed as arbitrary unit (A.U.).
(§3) To assess the efficacy of Fg1 recombinant peptide, the production of O2^∘− and H2O2 by HaCaT cells NHDK, THP-1, MRC5 and HDF stimulated by pretreated P. acnes strains 6919, RON and PIE was measured. The amount of ROS produced was compared to that produced by the stimulated cells with untreated bacteria. Production baseline was obtained by measuring ROS on unstimulated cells. The production of IL-1ß, IL-8, IL-12 and TNF-α was also measured in all conditions cited above. The measurement of the production of ROS is performed by spectrofluorimetry in the presence of specific fluorochromes directly on the monolayer cell. Measurement of cytokine production was performed in parallel on the cell culture supernatant.
(§4) Two sets of experiments were implemented: 1) The cells were stimulated (18 h at 37° C.) by P. acnes strains previously pretreated with Fg1 and Fg2 peptides at the final concentrations ranging from 0.87 to 7 μM for 1 h at 37° C.; and 2) The cells were pretreated first with Fg1 and Fg2 peptides at the final concentrations ranging from 0.87 to 7 μM for 24 h at 37° C. and stimulated (18 h at 37° C.) by P. acnes strains.

[3] = test system: HDF cells; assay: H2O2 production by P. acnes-stimulated HDF; details: 0.87 to 7 μM
Description: as §1, §2, §3, §4
(§5) To assess the efficacy of the small Fg1-related peptide, the production of H2O2 by several cell lines (HaCaT, NHDK, THP-1, MRC5 and HDF) stimulated by three P. acnes strains 6919, RON and PIE was measured, in presence or not with the small peptides. The amount of H2O2 produced is compared to that produced by the stimulated cells with untreated bacteria. Production baseline is obtained by measuring H2O2 on unstimulated cells. The measurement of the production of H2O2 is performed by spectrofluorimetry in the presence of specific fluorochromes directly on the monolayer cell.
(§6) Two sets of experiments have been implemented: • I) The cells are stimulated (18 h at 37° C.) by P. acnes strains previously pretreated with Fg1.1, Fg1.2, Fg1.3, Fg1.4, and Fg1.5 small peptides at the final concentrations ranging from 2.5 to 20 μM for 1 h at 37° C.; • II) The cells are pretreated first with the five small peptides at the final concentrations ranging from 2.5 to 20 μM for 24 h at 37° C. and stimulated (18 h at 37° C.) by P. acnes strains.

[4] = test system: HaCaT cells; assay: H2O2 production by P. acnes-stimulated HaCaT (spectrofluorimetry, H2-DCFDA); details: bacteria first pretreated, 0.87 to 7 μM
Description: as §1, §2, §3, §4, §5, §6

[5] = test system: NHDK cells; assay: O2°− production by P. acnes-stimulated NHDK; details: 0.87 to 7 μM
Description: as §1, §2, §3, §4

[6] = P. acnes 6919, set I, bacteria first pretreated
[7] = P. acnes 6919, set II, cells first pretreated
[8] = P. acnes PIE, set I, bacteria first pretreated
[9] = P. acnes PIE, set II, cells first pretreated
[10] = P. acnes RON, set I, bacteria first pretreated
[11] = P. acnes RON, set II, cells first pretreated

B1: MKRMVSWSFHKLKTMKHLLLLLLCVFLVKSQGVNDNEEGFFSARGHRPLDKKREEAPSLRPAPPPISGGGYRARPAKAAATQKKVERKAPDAGGCLHADPDLGVLC (protein)
chain: MKRMVSWSFHKLKTMKHLLLLLLCVFLVKSQGVNDNEEGFFSARGHRPLDKKREEAPSLRPAPPPISGGGRARPAKAAATQKKVERKAPDAGGCLHADPDLGVLCMKRMVSWSFHKLKTMKHLLLLLLCVFLVKSQGVNDNEEGFFSARGHRPLDKKREEAPSLRPAPPPISGGGYRARPAKAAATQKKVERKAPDAGGCLHADPDLGVLC
modifications: GST fusion; fragment Fg1
notes: fragment of Bß chain of human fibrinogen having 106 amino acids; recombinant GST-fused peptide expressed in E. coli
In the case of B1, the “Cytotoxic activity (cell viability, MTT)” value [1] is reported as “no cytotoxic activity”, the “Inhibition of Superoxide anion (O2°−) production” value (“Inhibition of Superoxide anion” below) [2, 6] is reported as “pos” and the “Inhibition of Superoxide anion” value [2, 7] is reported as “pos”. The “Inhibition of Superoxide anion” value [2, 8] was “pos”, the “Inhibition of Superoxide anion” value [2, 9] was “pos” and the “Inhibition of Superoxide anion” value [2, 10] was “pos”. For the same molecule, the “Inhibition of Superoxide anion” value [2, 11] was “pos”, the “Inhibition of Hydrogen peroxide (H2O2) production” value (shortened to “Inhibition of Hydrogen peroxide”) [3, 6] was “pos” and the “Inhibition of Hydrogen peroxide” value [3, 7] was “pos”. The “Inhibition of Hydrogen peroxide” value [3, 8] was “pos”, the “Inhibition of Hydrogen peroxide” value [3, 9] was “pos” and the “Inhibition of Hydrogen peroxide” value [3, 10] was “pos”. For the same molecule, the “Inhibition of Hydrogen peroxide” value [3, 11] was “pos”, the “Inhibition of Hydrogen peroxide” value ([4]; P. acnes 6919, set I) was “pos” and the “Inhibition of Hydrogen peroxide” value ([4]; P. acnes PIE, set I) was “pos”. For the same molecule, the “Inhibition of Hydrogen peroxide” value ([4]; P. acnes RON, set I) was “pos”, the “Inhibition of Superoxide anion” value [5, 6] was “pos” and the “Inhibition of Superoxide anion” value [5, 7] was “pos”. For the same molecule, the “Inhibition of Superoxide anion” value [5, 8] was “pos”, the “Inhibition of Superoxide anion” value [5, 9] was “pos” and the “Inhibition of Superoxide anion” value [5, 10] was “pos”. For the same molecule, the “Inhibition of Superoxide anion” value [5, 11] was “pos”.
